Laboratory results from US20070105155A1 (Janssen / Centocor, published 2007).

Experiments:
GST = biological target: T1, GST (UniProt P08515 1-218 = GST); experiment: GST pull-down control (GST alone on beads), autoradiography, FIG. 2C
T1 construct: Negative control bait; also called glutathione S-transferase control
Protocol: Agarose-GSH beads (50% (vol./vol.)) bound with about 1 μg of GST or GST-CaM were incubated with 10 μl of ³⁵S-labelled TRPM8 fragment for 30 min at room temperature in a final volume of 200 μl of binding buffer. At the end of the incubation, the beads were washed three times with 1.0 ml of binding buffer and resuspended in 20 μl of 2× laemmli's sample loading buffer. Protein(s) bound to the beads, including the GST-CaM fusion protein, and possibly the ³⁵S-labelled TRPM8 fragment that interact with the GST-CaM fusion protein, were separated by SDS/PAGE followed by autoradiography.

GST-CaM fusion protein = GST-CaM fusion protein (Homo sapiens (Human), UniProt P0DP23 2-149); experiment: GST pull-down on agarose-GSH beads, 35S-labelled fragment, SDS/PAGE and autoradiography

T1 sequence (P08515 whole entry): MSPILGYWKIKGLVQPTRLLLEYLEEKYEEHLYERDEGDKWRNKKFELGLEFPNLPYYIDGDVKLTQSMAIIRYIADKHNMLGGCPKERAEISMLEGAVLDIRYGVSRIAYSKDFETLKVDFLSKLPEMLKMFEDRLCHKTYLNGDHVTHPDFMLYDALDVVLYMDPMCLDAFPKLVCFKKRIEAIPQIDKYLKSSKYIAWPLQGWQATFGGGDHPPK

| Binder | binding result (GST) | binding result (GST-CaM fusion protein) |
| --- | --- | --- |
| TRPM8-7 fragment (rat TRPM8 V145-S352) (other, 35S-methionine labelled, In vitro translated from pAGA3; The forward primer carries an NcoI site (start ATG before V145); also called TRPM8-7/pAGA3; rTRPM8-7) VISVTGGAKNFALKPRMRKIFSRLIYIAQSKGAWILTGGTHYGLMKYIGEVVRDNTISRNSEENIVAIGIAAWGMVSNRDTLIRNCDDEGHFSAQYIMDDFMRDPLYILDNNHTHLLLVDNGCHGHPTVEAKLRNQLEKYISERTSQDSNYGGKIPIVCFAQGGGRETLKAINTSVKSKIPCVVVEGSGQIADVIASLVEVEDVLTSS | no binding |  |
| TRPM8-10 fragment (rat TRPM8 D198-S352) (other, 35S-methionine labelled, In vitro translated from pAGA3; The forward primer carries an NcoI site (start ATG before D198); also called TRPM8-10/pAGA3; rTRPM8-10) DNTISRNSEENIVAIGIAAWGMVSNRDTLIRNCDDEGHFSAQYIMDDFMRDPLYILDNNHTHLLLVDNGCHGHPTVEAKLRNQLEKYISERTSQDSNYGGKIPIVCFAQGGGRETLKAINTSVKSKIPCVVVEGSGQIADVIASLVEVEDVLTSS | no binding | no binding |

Now from value to binder:

| binding result (GST) | binding result (GST-CaM fusion protein) | Binder |
| --- | --- | --- |
|  | no binding | TRPM8-2 fragment (rat TRPM8 M353-T690) (other, 35S-methionine labelled, In vitro translated from pAGA3; also called TRPM8-2/pAGA3; rTRPM8-2) MVKEKLVRFLPRTVSRLPEEEIESWIKWLKEILESPHLLTVIKMEEAGDEVVSSAISYALYKAFSTNEQDKDNWNGQLKLLLEWNQLDLASDEIFTNDRRWESADLQEVMFTALIKDRPKFVRLFLENGLNLQKFLTNEVLTELFSTHFSTLVYRNLQIAKNSYNDALLTFVWKLVANFRRSFWKEDRSSREDLDVELHDASLTTRHPLQALFIWAILQNKKELSKVIWEQTKGCTLAALGASKLLKTLAKVKNDINAAGESEELANEYETRAVELFTECYSSDEDLAEQLLVYSCEAWGGSNCLELAVEATDQHFIAQPGVQNFLSKQWYGEISRDT |
| no binding | no binding | TRPM8-8 fragment (rat TRPM8 M219-S352) (other, 35S-methionine labelled, In vitro translated from pAGA3; also called TRPM8-8/pAGA3; rTRPM8-8) MVSNRDTLIRNCDDEGHFSAQYIMDDFMRDPLYILDNNHTHLLLVDNGCHGHPTVEAKLRNQLEKYISERTSQDSNYGGKIPIVCFAQGGGRETLKAINTSVKSKIPCVVVEGSGQIADVIASLVEVEDVLTSS |
| no binding | no binding | TRPM8-9 fragment (rat TRPM8 A172-S352) (other, 35S-methionine labelled, In vitro translated from pAGA3; The forward primer carries an NcoI site (start ATG before A172); also called TRPM8-9/pAGA3; rTRPM8-9) AQSKGAWILTGGTHYGLMKYIGEVVRDNTISRNSEENIVAIGIAAWGMVSNRDTLIRNCDDEGHFSAQYIMDDFMRDPLYILDNNHTHLLLVDNGCHGHPTVEAKLRNQLEKYISERTSQDSNYGGKIPIVCFAQGGGRETLKAINTSVKSKIPCVVVEGSGQIADVIASLVEVEDVLTSS |
